Here are results for one substance from article PMC3912212.

Test [1] concerns the target paclitaxel-stabilized microtubules (bovine brain tubulin) (bovine (purified from juvenile bovine brains)) (UniProt Q6B856). The test is described as follows: calculated from the TIRF intensity titration (KD) and the single-molecule lifetimes (koff); association rate constant inferred from KD and koff, not measured directly.
For test [2] the target is unchanged. The test is described as follows: TIRF microscopy, fluorescence intensity on microtubules against concentration; fluorescently-labeled microtubules adhered to cover glass; CCA-GFP introduced at increasing concentrations and allowed to equilibrate; line-scan intensity fit to a Michaelis-Menten curve (binding isotherm).
For test [3] the target is unchanged. Kind of test: TIRF microscopy, single-molecule assay for microtubule-associated proteins; rhodamine-labeled microtubules immobilised on the surface by anti-rhodamine antibodies; CCA-GFP in solution; lifetimes of tracked single molecules, exponential fit, corrected for photobleaching.
Test [4] has the same target. The test is described as follows: TIRF microscopy, fluorescence intensity on microtubules; surface-immobilized microtubules; CCA-GFP with no added salt, 25 mM KCl or 50 mM KCl; line-scan intensity, mean ± SD.
Test [5] has the same target. Kind of test: TIRF microscopy, fluorescence intensity on microtubules; one flow chamber containing both brightly-labeled microtubules and dimly-labeled, subtilisin-digested microtubules; CCA-GFP in solution; line-scan intensity, mean ± SD.
For test [6], the target named is subtilisin-digested microtubules (C-terminal tails of tubulin removed) (bovine (purified from juvenile bovine brains)).
The target in test [7] is paclitaxel-stabilized microtubules (bovine brain tubulin) (bovine (purified from juvenile bovine brains)) (UniProt Q6B856).

As to “CCA-GFP, minimal chromosome passenger complex of INCENP a.a. 491-873 (coiled-coil domain and INBox) and Aurora-B (from UniProt O13024 491-873; Q6DE08 1-361)”, in test [1], the kon was 8.25e+06 M⁻¹ s⁻¹. In test [2], this substance displayed a Kd of 80 nM. Also, in test [3], the koff turned out to be 0.66 s⁻¹ and the mean residence time on the lattice worked out at 1.5 s. For the same substance, in test [4], the CCA-GFP intensity on microtubules, 25 mM KCl added turned out to be 117 a.u; the CCA-GFP intensity on microtubules, 50 mM KCl added was determined as 27 a.u; the CCA-GFP intensity on microtubules, no added salt amounted to 277 a.u. In test [5], the GFP intensity on undigested microtubules stood at 375 a.u. Moreover, the normalized 32P band intensity of the INBox motif (CCA auto-phosphorylation) in an in vitro kinase assay with 3 µM subtilisin-digested microtubules; buffer control 0.62, undigested microtubules 0.92 in test [6] stood at 0.64 a.u. The substance also gave a normalized 32P band intensity of the INBox motif (CCA auto-phosphorylation) in an in vitro kinase assay with 3 µM microtubules; buffer control 0.62 in test [7] of 0.92 a.u.
